From publication PMC12442443, “Identifying interactions between TDP‐43's N‐terminal and RNA‐binding domains” (Protein Science : A Publication of the Protein Society, 2024) come the findings set out here.

Data set [1] addresses TDP-43 1-102 (NTD) (Homo sapiens, UniProt Q13148). As to the kind of experiment: HTRF; ligand (UG)6 per legend; Methods heading names biotin (UG)4; NMR: 40 mM HEPES pH 6.5, 300 mM NaCl, 4 mM DTT, 25 C, 25 uM protein; EMSA: same buffer, 25 C incubation, 6.25% PAGE 0.5x TBE at 4 C; MST and HTRF buffers not in material. The following applies: protein: recombinant; tags: His; single strand.

The target of data set [2] is TDP-43 1-260 (NTD-RRM1-RRM2) (Homo sapiens, UniProt Q13148). Put plainly: MST; apparent Kd; NMR: 40 mM HEPES pH 6.5, 300 mM NaCl, 4 mM DTT, 25 C, 25 uM protein; EMSA: same buffer, 25 C incubation, 6.25% PAGE 0.5x TBE at 4 C; MST and HTRF buffers not in material. Conditions: protein: recombinant; tags: His (MST: NT-647 labelled HisTDP-43; tag cleaved when needed); single strand. For orientation: A gel shift assay detects complexes by their altered migration in electrophoresis.

The target in data set [3] is TDP-43 102-260 (RRM1-RRM2) (Homo sapiens, UniProt Q13148). The description is as above. The following applies: protein: recombinant; tags: His (MST: NT-647 labelled HisTDP-43; tag cleaved when needed); single strand.
TDP-43 102-260 (RRM1-RRM2), sequence (Q13148 102-260): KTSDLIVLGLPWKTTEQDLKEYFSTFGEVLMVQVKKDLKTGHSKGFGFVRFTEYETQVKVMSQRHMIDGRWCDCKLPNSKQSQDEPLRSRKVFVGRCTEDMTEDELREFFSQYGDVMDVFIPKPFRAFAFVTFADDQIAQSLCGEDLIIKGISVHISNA

TDP-43 1-260 (NTD-RRM1-RRM2), sequence (Q13148 1-260): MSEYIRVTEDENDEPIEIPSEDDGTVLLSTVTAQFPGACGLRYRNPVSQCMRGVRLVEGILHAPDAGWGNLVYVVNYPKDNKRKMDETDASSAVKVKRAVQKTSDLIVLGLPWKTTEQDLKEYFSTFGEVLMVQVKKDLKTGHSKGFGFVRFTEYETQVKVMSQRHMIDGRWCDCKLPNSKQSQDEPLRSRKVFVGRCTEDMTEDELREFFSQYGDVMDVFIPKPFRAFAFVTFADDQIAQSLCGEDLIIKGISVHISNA
TDP-43 1-102 (NTD), sequence (Q13148 1-102): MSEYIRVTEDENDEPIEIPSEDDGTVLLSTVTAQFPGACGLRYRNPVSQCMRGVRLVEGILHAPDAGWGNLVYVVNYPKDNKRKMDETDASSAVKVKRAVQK

Regarding UGUGUGUGUGUG (ssRNA) [(UG)6 HTRF ligand], the binding result in data set [1] is recorded as “no binding”. In the case of UGUGUGUG (ssRNA) [(UG)4], the Kd in data set [2] came to 246 nM. UGUGUGUGUGUG (ssRNA) [(UG)6]: the Kd in data set [2] was 28.4 nM; in data set [3] it was 39.8 nM.
